Results published in patent US20160222124A1 (published 2016).

Experiments:
human CD40 (cellular) = human CD40 (cellular) (human, UniProt P25942 21-277); test: cell-based or functional assay
cynomolgus monkey CD40 = biological target: T1, cynomolgus monkey CD40 (cynomolgus monkey, UniProt G7PG38 21-278); test: ratio of binding EC50 human/cyno; ratio > 1 means increased binding to Cyno compared to Human
T1 construct: whole, on cells; also called Cyno CD40; CD40 on cynomolgus B cells and platelets

human CD40 (cellular), sequence (P25942 21-277): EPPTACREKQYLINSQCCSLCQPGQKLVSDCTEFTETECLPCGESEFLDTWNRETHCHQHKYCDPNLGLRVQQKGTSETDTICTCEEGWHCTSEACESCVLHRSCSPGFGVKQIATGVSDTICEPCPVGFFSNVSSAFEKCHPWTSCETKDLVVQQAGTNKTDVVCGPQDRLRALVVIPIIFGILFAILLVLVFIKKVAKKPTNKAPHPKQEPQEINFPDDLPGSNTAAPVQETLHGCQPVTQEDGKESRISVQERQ

| B cell proliferation: Agonism (SI*) (human CD40 (cellular)) | Species cross-react.: Hu/Cyno Binding (EC50 ratios) (cynomolgus monkey CD40) | Binder |
| --- | --- | --- |
| < 2 SI | 1 | Antibody C (antibody, V domains shown, also called 2H11-159-94) VH: QVQLVQSGAEVKKPGASVKVSCTASGFNIKDYYVHWVKQAPGQGLEWMGRIDPEDGDSKYAPKFQGKATMTADTSTSTVYMELSSLRSEDTAVYYCTTSYYVGTYGYWGQGTLVTVSS VL: DIQMTQSPSSLSASVGDRVTITCSASSSVSYMLWFQQKPGKAPKLLIYSTSNLASGVPSRFSGSGSGTDFTLTISSLQPEDFATYYCQQRTFYPYTFGGGTKVEIKR |
| < 2 SI | 3 | Antibody A (antibody, human IgG1, kappa, L234A L235A, V domains shown, also called 20E2-12) VH: EVQLVESGGGLVKPGGSLRLSCAASGFTFSDYGMHWVRQAPGKGLEWVAYISSGNRIIYYADTVKGRFTISRDNAKNSLYLQMNSLRAEDTALYYCARQDGYRYAMDYWAQGTLVTVSS VL: DIVMTQSPDSLAVSLGERATMSCKSSQSLLNSGNQKNYLTWHQQKPGQPPKLLIYWTSTRESGVPDRFSGSGSGTDFTLTISSLQAEDVAVYYCQNDYTYPLTFGGGTKVEIKR |
| < 2 SI | 2 | Antibody B (antibody, V domains shown, also called 10E2-1) VH: EVQLVESGGGLVKPGGSLRLSCAASGFTFSDYGMHWVRQAPGKGLEWVAYISSGNRIIYYADTVKGRFTISRDNAKNSLYLQMNSLRAEDTAVYYCARQDGYRYAMDYWGQGTLVTVSS VL: DIVMTQSPDSLAVSLGEKVTINCKSSQSLLNSGNQKNYLTWHQQKPGQPPKLLIYWTSTRESGVPDRFSGSGSGTDFTLTISSLQAEDVAVYYCQNDYTYPLTFGGGTKVEIKR |
| < 2 SI | – | 4D11 (Kirin/Astellas) anti-CD40 antibody (antibody, V domains shown) VH: QLQLQESGPGLLKPSETLSLTCTVSGGSISSPGYYGGWIRQPPGKGLEWIGSIYKSGSTYHNPSLKSRVTISVDTSKNQFSLKLSSVTAADTAVYYCTRPVVRYFGWFDPWGQGTLVTVSS VL: AIQLTQSPSSLSASVGDRVTITCRASQGISSALAWYQQKPGKAPKLLIYDASNLESGVPSRFSGSGSGTDFTLTISSLQPEDFATYYCQQFNSYPTFGQGTKVEIK |
